Data reported in patent US20240124556A1, “KERATIN BD-3, PREPARATION METHOD THEREFOR AND PHARMACEUTICAL COMPOSITION AND USE THEREOF” (INSTITUTE OF MATERIA MEDICA, CHINESE ACADEMY OF MEDICAL …, priority 2019, published 2024).

Legend:
[1] = system: yeast-induced fever model in SD rats; assay: Yeast-induced fever model of SD rats; assay type: in vivo; settings: for Body temperature 2 hours after modeling / Body temperature 8 hours after modeling / Body temperature 4 hours after modeling / Body temperature 6 hours after modeling: 20% yeast s.c.; for Body temperature 2 hours after modeling: model group 37.5 ± 0.1; for Body temperature 8 hours after modeling: model group 37.6 ± 0.1; for Body temperature 4 hours after modeling / Body temperature 6 hours after modeling: model group 37.7 ± 0.1
Experimental: (§1) • Animals: 230-260 grams of male SD rats; • Medicines: yeast (OXOID LP0021), aspirin (SIGMA A2093), protein BD-3; • Instruments: electronic balance (SARTORIUS BP121S type), electronic clinical thermometer (CITIZEN CT-513W type). • Experiment grouping: • Normal control group; • Model group: yeast fever model; • Positive control group: Aspirin 300 mg/kg group; • Protein BD-3, 10 mg/kg group, 50 mg/kg group. • Method:
(§2) Preparation of experimental animals: After the experimental animals adapt to the experimental environment (temperature 22° C.±2° C., relative humidity 50%±2%) for 1 day. Pre-adaptation to measure rectal temperature at 8:00 and 15:00, rats were fasted and water was taken freely 12 h before experiment, and let the animal to empty its feces before measuring the rectal temperature. Apply petroleum jelly to the electronic thermometer probe before each temperature measurement. Insert the rat rectum 2 cm (can be marked at 2 cm to ensure that the depth of each insertion is consistent), and record the body temperature after the reading is stable.
(§3) Subcutaneous injection of dry yeast to replicate rat fever model: The body temperature of the rats was measured before modeling. Qualified rats with a body temperature of 36.2-37.3° C. were selected and randomly divided into groups with 8 rats in each group. After oral administration of aspirin and different doses of protein BD-3, 20% yeast suspension (10 ml/kg) was injected subcutaneously immediately, and the normal control group was injected intraperitoneally with an equal volume of normal saline. The body temperatures of the rats were monitored after 2 hours for a total of 8 hours.
(§4) According to the body temperature measured at each time point on the day of the experiment, calculate the mean, standard deviation and standard error of the body temperature of each group of rats. The data of each group was compared with TTEST, and P<0.05 was considered as a significant difference.

[2] = system: lipopolysaccharide (LPS) induced fever model in SD rats; assay: Lipopolysaccharide (LPS) induced fever in SD rats; assay type: in vivo; settings: for Body temperature 2 hours after modeling / Body temperature 4 hours after modeling / Body temperature 6 hours after modeling / Body temperature 8 hours after modeling: LPS 20 μg/kg i.p.; for Body temperature 2 hours after modeling: model group 37.6 ± 0.1; for Body temperature 4 hours after modeling: model group 37.8 ± 0.1; for Body temperature 6 hours after modeling / Body temperature 8 hours after modeling: model group 37.8 ± 0.2
Experimental: as §1, with “Drugs: lipopolysaccharide (LPS, SIGMA L-2880),” for “Medicines: yeast (OXOID LP0021),”, “BD-3;” for “BD-3; •”, “lipopolysaccharide” for “yeast”, “Method: the method of intraperitoneal injection of Lipopolysaccharide to replicate rat fever model.” for “Method:”
as §2
as §3, with “Intraperitoneal” for “Subcutaneous”, “lipopolysaccharide” for “dry yeast”, “lipopolysaccharide (20 μg/kg, 2” for “20% yeast suspension (10”, “intraperitoneally” for “subcutaneously”
as §4

[3] = system: phenol red excretion in mice; assay: Expectorant test, phenol red excretion method in mice; assay type: in vivo, ICR mice; settings: for Phenol red excretion: X ± SEM, solvent control 0.506 ± 0.040
Experimental: • Animals: male ICR mice; • Drugs and reagents: Mucosolvan (ambroxol hydrochloride tablets), phenol red, sodium bicarbonate, protein BD-3; • Instruments: centrifuge (Sigma-3K15 type), balance (XS105DU type), Microplate tester (BIO-TEK type). • Experiment Grouping: • Solvent control group; • Mucosolvan 30 mg/kg group; • Protein BD-3, 20 mg/kg group, 50 mg/kg group.
The animals were fasted and water was taken freely 16 hours before the experiment. Orally administered Mucosolvan and different doses of protein BD-3 (administration volume 10 ml/kg) in groups, and the solvent control group was given the same volume of distilled water. One hour later, 2.5% phenol red solution was injected intraperitoneally. Mice were sacrificed by neck dislocation after 30 minutes. Take a trachea from below the thyroid cartilage to the branch of the trachea, and put the trachea into 3 ml 5% NaHCO3 solution and let it stand for 3 hours. Take 1 ml of the supernatant and centrifuge at 3000 rpm for 5 minutes. Measure and record the absorbance at 546 nm. According to the standard curve of phenol red, the excretion of phenol red was calculated.
Record the time point of oral administration, the time point of intraperitoneal injection of 2.5% phenol red solution, and the time point of taking the trachea respectively; The absorbance of each group of samples was measured by the microplate reader at 546 nm, Calculate the excretion of phenol red according to the standard curve of phenol red. Calculate the mean and standard error of the data in each group, and use TTEST to compare the solvent control group with other groups, and P<0.05 is considered as a significant difference.

[4] = summary statement, no dose given

B1: BD-3: recombinant keratin, amino acid sequence SEQ ID NO:1, expressed in E. coli, band around 43 kD; tested material prepared in Example 4 (protein, listed as Bos taurus)
chain: MSYSCCLPNLSFRSSCSSRPCVPSSCCGTTLPGACNIPANVGSCNWFCEGSFNGSEKETMQFLNDRLASYLEKVRQLERDNAELESRILERSQQKILANKAENARLVVQIDNAKLAADDFRTKYQTELGLRQLVESDINGLRRILDELTLCKSDLEAQVESLKEELICLKQNHEQEVNTLRSQLGDRLNVEVDAAPTVDLNRVLNETRAQYEALVETNRRDVEEWYIRQTEELNKQVVSSSEQLQSYQAEIIELRRTVNALEVELQAQHNLRDSLENTLTETEARYSCQLAQVQGLIGNVESQLAEIRSDLERQNQEYQVLLDVRARLECEINTYRGLLDSEDCKLPCNPCATTNASSVGSCVTNPCTPCGPRSRFGPCNTFGC
Body temperature 2 hours after modeling ([1]; BD-3 10 mg/kg oral): 37.0 ± 0.2 °C
Body temperature 8 hours after modeling ([1]; BD-3 10 mg/kg oral): 37.4 ± 0.1 °C
Body temperature 4 hours after modeling ([1]; BD-3 10 mg/kg oral): 37.3 ± 0.1 °C
Body temperature 6 hours after modeling ([1]; BD-3 10 mg/kg oral): 37.4 ± 0.1 °C
Body temperature 2 hours after modeling ([1]; BD-3 50 mg/kg oral): 36.9 ± 0.1 °C
Body temperature 8 hours after modeling ([1]; BD-3 50 mg/kg oral): 37.3 ± 0.1 °C
Body temperature 4 hours after modeling ([1]; BD-3 50 mg/kg oral): 37.2 ± 0.1 °C
Body temperature 6 hours after modeling ([1]; BD-3 50 mg/kg oral): 37.4 ± 0.1 °C
Effect on body temperature of model rats (in words) ([1]; different doses of BD-3 (10 mg/kg, 50 mg/kg), at 2 hours and 4 hours after modeling, P<0.05 vs model group): can significantly inhibit the increase in body temperature of model rats
Summary: antipyretic effect in yeast fever model (in words) [1, 4]: can significantly inhibit the increase in body temperature at 2 hours and 4 hours after modeling
Body temperature 2 hours after modeling ([2]; BD-3 10 mg/kg oral): 37.6 ± 0.1 °C
Body temperature 4 hours after modeling ([2]; BD-3 10 mg/kg oral): 37.9 ± 0.2 °C
Body temperature 6 hours after modeling ([2]; BD-3 10 mg/kg oral): 37.9 ± 0.2 °C
Body temperature 8 hours after modeling ([2]; BD-3 10 mg/kg oral): 37.6 ± 0.2 °C
Body temperature 2 hours after modeling ([2]; BD-3 50 mg/kg oral): 37.2 ± 0.2 °C
Body temperature 4 hours after modeling ([2]; BD-3 50 mg/kg oral): 37.3 ± 0.2 °C
Body temperature 6 hours after modeling ([2]; BD-3 50 mg/kg oral): 37.7 ± 0.3 °C
Body temperature 8 hours after modeling ([2]; BD-3 50 mg/kg oral): 37.6 ± 0.2 °C
Effect on body temperature of model rats (in words) ([2]; BD-3 50 mg/kg, at 2 hours and 4 hours after modeling, P<0.05 vs model group): can reduce the body temperature of model rats
Summary: antipyretic effect in LPS fever model (in words) [2, 4]: has a significant effect of reducing body temperature rise at 2 hours and 4 hours after modeling
Phenol red excretion ([3]; BD-3 20 mg/kg oral): 0.750 ± 0.085 µg/mL
Excretion of phenol red vs solvent control (in words) ([3]; BD-3 20 mg/kg, P<0.05): significantly increased the excretion of phenol red
Phenol red excretion ([3]; BD-3 50 mg/kg oral): 0.706 ± 0.114 µg/mL
Summary: expectorant effect (in words) [3, 4]: has obvious expectorant effect
